Substrate in data set [1]: O=C(O)c1ccc(C(=O)OCCO)cc1
The data set is described as follows: initial rates, TPA by HPLC, Michaelis-Menten fit. It is filed as biochemical, Pseudideonella sakaiensis. As to conditions: 50 mM sodium phosphate, pH 7.5, 50 °C.

Substrate in data set [2]: O=C(O)c1ccc(C(=O)OCCO)cc1
The data set is described as follows: MHET hydrolysis kinetics. As to conditions: conditions in supplement; pH 7.5; 50.0 °C. It is filed as biochemical, unidentified prokaryotic organism. From the text:
MHET hydrolysis kinetics on LCC-ICCG | (LCC-ICCG and FAST-PETase) had weak catalytic activities with regard to the hydrolysis of MHET

Substrate in data set [3]: O=C(O)c1ccc(C(=O)OCCO)cc1
The data set is described as follows: initial rates, TPA by HPLC, Michaelis-Menten fit. As to conditions: 50 mM sodium phosphate, pH 7.5, 50 °C, M3. It is filed as biochemical, Geobacillus stearothermophilus. From the text:
initial rates, TPA by HPLC, Michaelis-Menten fit on Est30 (1TQH scaffold; wild-type carboxylesterase) | single variants M1 (G130L) and M3 (G130F) (Table S13) had improved catalytic efficiencies

Substrate in data set [4]: O=C(O)c1ccc(C(=O)OCCO)cc1
The data set is described as follows: initial rates, TPA by HPLC, Michaelis-Menten fit. As to conditions: 50 mM sodium phosphate, pH 7.5, 50 °C, 10 min, 0.5 μM enzyme. It is filed as biochemical, Geobacillus stearothermophilus.

Substrate in data set [5]: O=C(O)c1ccc(C(=O)OCCO)cc1
Kind of data set: initial rates, TPA by HPLC, Michaelis-Menten fit. It is filed as biochemical, Geobacillus stearothermophilus. The following applies: 50 mM sodium phosphate, pH 7.5, 50 °C, 10 min, 0.5 μM enzyme. From the text: initial rates, TPA by HPLC, Michaelis-Menten fit on Est30 (1TQH scaffold; wild-type carboxylesterase)
The source holds these as a separate data set.

Numbering of substitutions follows the chain as printed. In names and notes the source's numbering stands.

B1: FAST-PETase (Pseudideonella sakaiensis; D186H/N233K/R224Q/R280A/S121E) (protein)
chain: QTNPYARGPNPTAASLEASAGPFTVRSFTVSRPSGYGAGTVYYPTNAGGTVGAIAIVPGYTARQSSIKWWGPRLASHGFVVITIDTNSTLDQPESRSSQQMAALRQVASLNGTSSSPIYGKVDTARMGVMGWSMGGGGSLISAANNPSLKAAAPQAPWHSSTNFSSVTVPTLIFACENDSIAPVNSSALPIYDSMSQNAKQFLEIKGGSHSCANSGNSNQALIGKKGVAWMKRFMDNDTRYSTFACENPNSTAVSDFRTANCS
Consider B1, for which, in data set [1], the Km is 33.87 ± 2.82 mM and the kcat worked out at 2.34 ± 0.14 s⁻¹.

B2: LCC-ICCG (unidentified prokaryotic organism; D238C/F243I/S283C/Y127G) (protein)
chain: QSNPYQRGPNPTRSALTADGPFSVATYTVSRLSVSGFGGGVIYYPTGTSLTFGGIAMSPGYTADASSLAWLGRRLASHGFVVLVINTNSRFDGPDSRASQLSAALNYLRTSSPSAVRARLDANRLAVAGHSMGGGGTLRIAEQNPSLKAAVPLTPWHTDKTFNTSVPVLIVGAEADTVAPVSQHAIPFYQNLPSTTPKVYVELCNASHIAPNSNNAAISVYTISWMKLWVDNDTRYRQFLCNVNDPALCDFRTNNRHCQ
Consider B2, for which, in data set [2], the Michaelis-Menten constant (Km) is 20.13 ± 3.69 mM and the kcat stood at 1.41 ± 0.13 s⁻¹.

B3: Est30 (1TQH scaffold; wild-type carboxylesterase) (Geobacillus stearothermophilus; G129F) (protein)
chain: MKIVPPKPFFFEAGERAVLLLHGFTGNSADVRMLGRFLESKGYTCHAPIYKGHGVPPEELVHTGPDDWWQDVMNGYEFLKNKGYEKIAVAGLSLGGVFSLKLGYTVPIEGIVTMCAPMYIKSEETMYEFVLEYAREYKKREGKSEEQIEQEMEKFKQTPMKTLKALQELIADVRDHLDLIYAPTFVVQARHDEMINPDSANIIYNEIESPVKQIKWYEQSGHVITLDQEKDQLHEDIYAFLESLDW
notes: E. coli BL21(DE3), pET-22b(+) NdeI/XhoI, C-terminal His6 tag kept, HisTrap purified
B3: in data set [3], the Km turned out to be 1.12 ± 0.45 mM and the kcat amounted to 0.75 ± 0.05 s⁻¹.

B4: Est30 (1TQH scaffold; wild-type carboxylesterase) (Geobacillus stearothermophilus; G129L/I170K/M126S) (protein)
chain: B3 chain with M126S, F129L, I170K
notes: as for B3
As to B4, in data set [4] (M14 (KLS-MHETase)), the Km stood at 1.73 ± 0.24 mM, the kcat is 21.8 ± 0.62 s⁻¹ and the kcat/Km worked out at 12600 M⁻¹ s⁻¹.

B5: Est30 (1TQH scaffold; wild-type carboxylesterase) (Geobacillus stearothermophilus; G129L) (protein)
chain: B3 chain with F129L
notes: as for B3
For B5, in data set [5] (M1), the Km amounted to 5.36 ± 1.13 mM, the kcat was found to be 2.97 ± 0.21 s⁻¹ and the kcat/Km was determined as 550 M⁻¹ s⁻¹.

B6: Est30 (1TQH scaffold; wild-type carboxylesterase) (Geobacillus stearothermophilus) (protein)
chain: B3 chain with F129G
notes: as for B3
As for B6, in data set [5], the Km stood at 8.98 ± 2.49 mM, the kcat was 1.17 ± 0.14 s⁻¹ and the catalytic efficiency (kcat/Km) was determined as 130 M⁻¹ s⁻¹.

B7: Est30 (1TQH scaffold; wild-type carboxylesterase) (Geobacillus stearothermophilus; G129L/I170K) (protein)
chain: B3 chain with F129L, I170K
notes: as for B3
Regarding B7, in data set [4] (M8 (KL-MHETase)), the Km turned out to be 4.56 ± 0.75 mM, the kcat amounted to 21.4 ± 1.12 s⁻¹ and the kcat/Km was 4700 M⁻¹ s⁻¹.

B8: Est30 (1TQH scaffold; wild-type carboxylesterase) (Geobacillus stearothermophilus; G129F/I170K/M126S) (protein)
chain: B3 chain with M126S, I170K
notes: as for B3
On to B8, for which, in data set [4] (M13), the Km came out at 2.59 ± 0.41 mM, the catalytic constant (kcat) is 21 ± 0.83 s⁻¹ and the catalytic efficiency (kcat/Km) was found to be 8110 M⁻¹ s⁻¹.

B9: Est30 (1TQH scaffold; wild-type carboxylesterase) (Geobacillus stearothermophilus; I170K) (protein)
chain: B3 chain with F129G, I170K
notes: as for B3
Consider B9, for which, in data set [4] (M2, substrate range 2-20 mM), the Km is reported as 53.70 ± 34.77 mM, the kcat stood at 36 ± 18.2 s⁻¹ and the catalytic efficiency (kcat/Km) stood at 670 M⁻¹ s⁻¹.

What is called Km is the concentration of substrate that gives half-maximal velocity. Usually kcat stands for the number of substrate molecules converted per active site and unit of time at saturation. Broadly, the kcat/Km is the turnover number divided by the Michaelis constant.

The values above are taken from PMC10636135, “Computational design of highly efficient thermostable MHET hydrolases and dual enzyme system for PET recycling” (Communications Biology, 2023).
